{"source": "paper PMC6170153", "about": "“Structures reveal opening of the store-operated calcium channel Orai” (eLife, 2018)", "proteins": {"B1": {"name": "H206A Orai_(cryst) (natural protein, Drosophila melanogaster, UniProt Q9U6B8 133-341, looked up)", "chain": "MSQSGEDLHSPTYLSWRKLQLSRAKLKASSKTSALLSGFAMVAMVEVQLDHDTNVPPGMLIAFAICTTLLVAVAMLALMISTCILPNIETVSNLHSISLVHESPHERLHWYIETAWAFSTLLGLILFLLEIAILCWVKFYDLSPPAAWSATVVLIPVMIIFMAFAIHFYRSLVSHKYEVTVSGIRELEMLKEQMEQDHLEHHNNIRNNG", "notes": "Hexameric channel; The model holds residues 148-327 without 181-191 and 220-239; also called open conformation"}, "B2": {"name": "WT Orai_(cryst) (natural protein, Drosophila melanogaster, UniProt Q9U6B8 133-341, looked up)", "chain": "B1 chain with A74H", "notes": "Drosophila melanogaster Orai, amino acids 133-341, with C224S and C283T (made to improve stability); wild-type Pro276 and Pro277; 24 subunits in four channels in the asymmetric unit (24-fold NCS), which makes six a channel; The model holds residues 148-327 without 181-191 and 220-239; also called wild-type (WT) Orai_(cryst); unlatched-closed conformation"}, "B3": {"name": "K163W Orai_(cryst) (natural protein, Drosophila melanogaster, UniProt Q9U6B8 133-341, looked up)", "chain": "B1 chain with K31W, A74H", "notes": "Hexameric channel, solved in two crystal forms (I4_(1) and P4_(2)2_(1)2); also called K163W mutant"}}, "key": {"[1]": {"biological_target": "the molecule itself", "assay": "crystal structure; H206A Orai_(cryst), space group I4_(1), 6.7 Å, 24 subunits (four channels) in the asymmetric unit, 24-fold NCS averaging; crystals grown in 36-38% PEG400, 500 mM NaCl, 100 mM Tris-HCl pH 9.0"}, "[2]": {"biological_target": "the molecule itself", "assay": "crystal structure; WT Orai_(cryst), space group I4_(1), 6.9 Å, MR-SAD, 24-fold NCS averaging; crystals grown in 32-35% PEG 400, 0.1 M potassium phosphate pH 7.5"}, "[3]": {"biological_target": "the molecule itself", "assay": "crystal structure; K163W Orai_(cryst), space group I4_(1), 6.1 Å, MIRAS, 24-fold NCS averaging; crystals grown in 26-28% PEG 400, 150 mM NaCl, 100 mM HEPES pH 7.5"}}, "note": "Positions count from the first letter of the chain named. In names and notes the source's numbering stands."}
{"protein": "B1", "values": [{"measurement": "stoichiometry N", "setting": "[1]", "value": 6}]}
{"protein": "B2", "values": [{"measurement": "binding result", "setting": "[2]", "value": "binds"}]}
{"protein": "B3", "values": [{"measurement": "stoichiometry N", "setting": "[3]", "value": 6}]}
